From patent EP4688860A2 (dated 2026)

B1: anti-CD38 scFv of SEQ ID NO:117 (scFv)
scFv: EVQLVESGGGVVRPGGSLRLSCAASGFTFDDYGMSWVRQAPGKGLEWVSGINWNGGSTGYADSVKGRFTISRDNAKNSLYLQMNSLRAEDTAFYHCAREGDGYKGTFYYYYYMDVWGKGTTVTVSSGGGGSGGGGSGGGGSDIQLTQSPSFLSASVGDRVTITCRASQGIFNYLAWYQQKPGKAPNLLIYAASNLQSGVPSRFSGSGSGTEFTLTISSLQPEDFATYYCQQLNSYPLTFGGGTKVEIK
notes: One of the 12 selected scFvs; Also tested inside a CAR
B2: anti-CD38 scFv of SEQ ID NO:116 (scFv)
scFv: EVQLVESGGGVVRPGGSLRLSCAASGFTFDDYGMSWVRQAPGKGLEWVSGINWNGGSTDYAASVKGRFTISRDNAKNSLYLQMNSLRAEDTALYHCARVFCTNGVCYPYSYYYFMDVWGKGTTVTVSSGGGGSGGGGSGGGGSEIVMTQSPATLSVSPGERATLSCRASQSVSSNLAWYQQKPGQAPRLLTYGASTRATGIPARFSGSGSGTEFTLTISSLQSEDFAVYYCQQYNNWPYTFGQGTRLEIK
notes: as for B1
B3: anti-CD38 scFv of SEQ ID NO:110 (scFv)
scFv: QVQLVQSGAEVKKPGASVKVSCKASGYTFNRYVISWVRQAPGQGLEWMGWIRAYNGNTNYAQKFQGRVTMTTDTSTSTAYMELRSLRSDDTAVYYCARDSTTGTTEGMDVWGKGTTVTVSSGGGGSGGGGSGGGGSEIVMTQSPATLSLSPGERATLSCRASQSVSSSYLSWYQQKPGQAPRLLIYGASTRATGIPARFSGSGSGTDFTLTISSLQPEDFAVYYCQQDYNLPLTFGGGTKVEIN
notes: as for B1
B4: anti-CD38 scFv of SEQ ID NO:119 (scFv)
scFv: EVQLLESGGGLVQPGGSLRLSCAASGFTFSNYDMSWVRQAPGKGLEWVSTTSASGGNTYYADSVRGRFTISRDNSKNTLYLQMNSLRAEDTAVYYCAKEGDGYNPFRDHYYYFMDVWGKGTTVTVSSGGGGSGGGGSGGGGSETVMTQSPAALSVSPGERATLSCRASQSVSSNLAWYQQKPGQAPRLLIYGASTRATGIPARFSGSGSGTEFTLTISSLQSEDFAVYYCQQYNNWPPYTFGQGTKLEIK
notes: as for B1
B5: anti-CD38 scFv of SEQ ID NO:109 (scFv)
scFv: EGQLLESGGGLVQPGGSLRLSCAASGFTFSSFAMSWVRQAPGKGLEWVSTISGSGGSTNYADSVKGRFTISRDNSKKTLYLQMSSLRAEDTAVFYCAKGPTSPYSYYMDVWGKGTTVTVSSGGGGSGGGGSGGGGSEIVMTQSPATLSLSPGERATLSCRASQSVSSSFLSWFQQKPGQAPRLLIYGASTRATGIPARFSGSGSGTDFTLTISSLQPEDFAVYYCQQDYNLPYTFGQGTKLEIK
notes: as for B1
B6: anti-CD38 scFv of SEQ ID NO:108 (scFv)
scFv: EVQLLESGGGLVQPGGSLRLSCAASGFTFSSYAMTWVRQAPGKGLEWVSAISPSGGSTFYADSVKGRFTISRDNSKNTLYLEMNSLRAEDTAVYYCAKDLDFYGSGSYSSWGKGTTVTVSSGGGGSGGGGSGGGGSEIVMTQSPATLSLSPGERATLSCRASQSVSNSYLSWYQQKPGQAPRLLIFGTSTRATGIPARFSGSGSGTDFTLTISSLQPEDFAVYHCQQDYKLPYTFGQGTKLEIK
notes: One of the 12 selected fully human scFvs; Also tested inside a CAR (CD8a hinge and transmembrane, OX40, CD3zeta; FLAG tag in Jurkat cells)
B7: anti-CD38 scFv of SEQ ID NO:112 (scFv)
scFv: QVQLVQSGAEVKKPGASVKVSCKASGFTFTSYGFSWVRQAPGQGLEWMGWISAYSGNTKYAQKFQGRVTMTTDTSTSTAYMELRSLRSDDTAVYYCAREGGTTGTFYYYYYMDVWGKGTTVTVSSGGGGSGGGGSGGGGSEIVLTQSPDFQSVTPKEKVTITCRASQSIGRSLHWYQQKPDQSPKLLIKYASQSFSGVPSRFSGSGSGTDFTLTINSLEAEDAATYYCLQSSSLPLTFGGGTKVEIK
notes: as for B1
B8: anti-CD38 scFv of SEQ ID NO:111 (scFv)
scFv: EAQLLESGGDLVQPGGSLRLSCAASGFTFSSYAMSWVRQAPGKGLEWVSTISVSGDSTYYADSVKGRFTISRDNSKNTLYLQMNSLRAEDTAVYYCAKALLYQGLRMDVWGKGTTVTVSSGGGGSGGGGSGGGGSDIQMTQSPSSLSASVGDRVTITCRASQGIATWLAWYQQKPEKAPKSLIYAASSLQSGVPSRFSGSGSGTDFTLSISSLQPEDFATYYCQQYNSYPLTFGGGTKVEIK
notes: as for B1

target: T1, human CD38 on cells (human CD38-overexpressing Jurkat cells); CD38-expressing MM.1R, THP-1 and MM.1S target … (human, UniProt P28907 1-300); assay: summing-up sentence of the examples (cell binding, SPR, CAR format)
T1 construct: also called CD38+ cells

Binding result, binds:
B1
B2
B3
B4
B5
B6
B7
B8
